Test results as given in article doi:10.1101/2025.09.09.675230.

Columns and labels:
[1] = target: Measles virus hemagglutinin (H) ectodomain with twin StrepII tag (HECT-TS), residues 149-617 (Measles virus strain IC323 (Ichinose-B95a)); test: cryo-EM structure
[2] = target: Measles virus hemagglutinin (H) ectodomain, untagged (HECT), residues 149-617 (Measles virus strain IC323 (Ichinose-B95a)); test: cryo-EM structure

| Substance | stoichiometry N [1] | stoichiometry N [2] |
| --- | --- | --- |
| Measles virus hemagglutinin (H) ectodomain with twin StrepII tag (HECT-TS), residues 149-617 (domain or fragment) | 2 |  |
| Measles virus hemagglutinin (H) ectodomain, untagged (HECT), residues 149-617 (domain or fragment) |  | 2 |
